Data from paper PMC7322680 (Biochemistry and Biophysics Reports, 2020).
Values joined by “and” are separate entries in the source; they are usually repeats but may differ in a detail not shown here. Equal values may be shown once.

Experiments:
[1] = target: the molecule itself; assay: SEC-MALS
[2] = target: the molecule itself; assay: SEC

B1: human podocin domain (residues 126-350) (domain or fragment, UniProt Q9NP85 126-350, looked up)
chain: KVVQEYERVIIFRLGHLLPGRAKGPGLFFFLPCLDTYHKVDLRLQTLEIPFHEIVTKDMFIMEIDAICYYRMENASLLLSSLAHVSKAVQFLVQTTMKRLLAHRSLTEILLERKSIAQDAKVALDSVTCIWGIKVERIEIKDVRLPAGLQHSLAVEAEAQRQAKVRMIAAEAEKAASESLRMAAEILSGTPAAVQLRYLHTLQSLSTEKPSTVVLPLPFDLLNCL
[1]
  stoichiometry N: ~16 and 25 and 13
[2]
  stoichiometry N: 16
